Experimental data reported in patent US20230025600A1, “TREATMENT OF CANCERS WITH ANTIBODY DRUG CONJUGATES (ADC) THAT BIND TO 191P4D12 PROTEINS” (AGENSYS, INC., priority 2019, published 2023).

Assays:
[1] = Pooled safety in 310 patients (EV-201, EV-101, EV-102); type: in vivo, human
Procedure: Because clinical trials are conducted under widely varying conditions, adverse reaction rates observed in the clinical trials of a drug cannot be directly compared to rates in the clinical trials of another drug and may not reflect the rates observed in practice. The data in the WARNINGS AND PRECAUTIONS section reflect exposure to PADCEV as a single agent at 1.25 mg/kg in 310 patients in EV-201, EV-101 (NCT02091999), and EV-102 ([…]). Among 310 patients receiving PADCEV, 30% were exposed for ≥6 months and 8% were exposed for ≥12 months.

[2] = EV-201 laboratory abnormalities; type: in vivo, human
Procedure: The data described in this section reflect exposure to PADCEV from EV-201, a single arm study in patients (n=125) with locally advanced or metastatic urothelial cancer who had received prior treatment with a PD-1 or PD-L1 inhibitor and platinum-based chemotherapy. Patients received PADCEV 1.25 mg/kg on Days 1, 8 and 15 of a 28-day cycle until disease progression or unacceptable toxicity. The median duration of exposure to PADCEV was 4.6 months (range: 0.5-15.6). […]

[3] = system: rats; experiment: Repeat-dose toxicology studies in rats; type: in vivo, rat
[4] = biological target: T1, 191P4D12 (Homo sapiens, UniProt Q96NY8); experiment: Comparability: analytical and biological characterization studies; details: binding affinity to 191P4D12, in vitro cytotoxicity, in vivo antitumor activity
T1 sequence (Q96NY8 32-510): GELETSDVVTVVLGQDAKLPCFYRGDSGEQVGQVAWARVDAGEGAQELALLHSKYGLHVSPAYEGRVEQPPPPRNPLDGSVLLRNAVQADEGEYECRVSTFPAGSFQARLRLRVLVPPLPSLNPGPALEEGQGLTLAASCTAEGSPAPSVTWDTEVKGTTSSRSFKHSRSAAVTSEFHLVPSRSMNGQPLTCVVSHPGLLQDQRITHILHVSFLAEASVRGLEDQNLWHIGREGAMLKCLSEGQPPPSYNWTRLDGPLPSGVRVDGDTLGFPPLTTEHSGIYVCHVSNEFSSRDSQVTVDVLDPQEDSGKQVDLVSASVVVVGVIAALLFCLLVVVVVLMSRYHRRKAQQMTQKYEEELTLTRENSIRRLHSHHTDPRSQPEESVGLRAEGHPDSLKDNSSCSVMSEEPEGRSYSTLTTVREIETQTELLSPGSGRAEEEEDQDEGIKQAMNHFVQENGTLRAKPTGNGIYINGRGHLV
Description: As described above and in U.S. Pat. No. 8,637,642, AGS-22M6E is an ADC derived from a murine hybridoma cell line. Enfortumab vedotin is the a Chinese hamster ovary (CHO) cell line-derived equivalent of AGS-22M6E ADC and is an exemplary product used for human treatment. Enfortumab vedotin has the same amino acid sequence, linker and cytotoxic drug as AGS-22M6E. The comparability between enfortumab vedotin and AGS-22M6E was confirmed through extensive analytical and biological characterization studies, such as binding affinity to 191P4D12, in vitro cytotoxicity, and in vivo antitumor activity.

[5] = Immunogenicity (anti-therapeutic antibody, ATA); type: in vivo, human; details: 365 patients tested
Description: As with all therapeutic proteins, there is a potential for immunogenicity. The detection of antibody formation is highly dependent on the sensitivity and specificity of the assay. Additionally, the observed incidence of antibody (including neutralizing antibody) positivity in an assay may be influenced by several factors including assay methodology, sample handling, timing of sample collection, concomitant medications, and underlying disease. For these reasons, comparison of the incidence of antibodies in the studies described below with the incidence of antibodies in other studies or other enfortumab vedotin products may be misleading.
A total of 365 patients were tested for immunogenicity to PADCEV; 4 patients (1%) were confirmed to be transiently positive for anti-therapeutic antibody (ATA), and 1 patient (0.3%) was confirmed to be persistently positive for ATA at any post-baseline time point. No impact of ATA on efficacy, safety and pharmacokinetics was observed.

[6] = Exposure-response analysis; type: in vivo, human
[7] = 310 patients in clinical trials
[8] = 310 patients in clinical trials, 1.25 mg/kg
[9] = EV-201, denominator 121 or 122 patients

enfortumab vedotin-ejfv [PADCEV]
blurred vision ([1]; 310 patients): 14% | dry eye symptoms ([1]; 310 patients): 19% | extravasation reactions with secondary cellulitis, bullae, or exfoliation ([1]; 310 patients): One | median time to onset to symptomatic vision disorder ([1]; 310 patients): 3.1 months | ocular disorders ([1]; 310 patients): 46% | skin and soft tissue reactions secondary to extravasation ([1]; 310 patients): 1.3% | Grade 3-4 skin reactions [1, 7]: 10% | maculopapular rash [1, 7]: 26% | pruritus [1, 7]: 30% | skin reactions [1, 7]: 54% | peripheral neuropathy Grade 3 reactions [1, 8]: 2% | peripheral neuropathy, predominantly sensory [1, 8]: 49% | differences in safety or effectiveness between patients 65 years or older and younger patients ([1]; 310 patients, 187 were 65 years or older, 80 were 75 years or older): No overall differences | erythema, swelling, increased temperature and pain worsened until, after extravasation ([1]; infusion site extravasation): 2 to 7 days | extravasation reactions resolved within, of peak ([1]; infusion site extravasation): 1-4 weeks | incidence of Grade 3-4 hyperglycemia with higher body mass index and higher baseline A1C ([1]; patients treated with PADCEV): increased consistently | Creatinine increased, Grade 3-4 [2, 9]: 2% | Creatinine increased, Grades 2-4 [2, 9]: 20% | Glucose increased, Grade 3-4 [2, 9]: 8% | Hemoglobin decreased, Grade 3-4 [2, 9]: 10% | Hemoglobin decreased, Grades 2-4 [2, 9]: 34% | Leukocytes decreased, Grade 3-4 [2, 9]: 4% | Leukocytes decreased, Grades 2-4 [2, 9]: 14% | Lipase increased, Grade 3-4 [2, 9]: 9% | Lipase increased, Grades 2-4 [2, 9]: 14% | Lymphocytes decreased, Grade 3-4 [2, 9]: 10% | Lymphocytes decreased, Grades 2-4 [2, 9]: 32% | Neutrophils decreased, Grade 3-4 [2, 9]: 5% | Neutrophils decreased, Grades 2-4 [2, 9]: 14% | Phosphate decreased, Grade 3-4 [2, 9]: 10% | Phosphate decreased, Grades 2-4 [2, 9]: 34% | Sodium decreased, Grade 3-4 [2, 9]: 8% | Sodium decreased, Grades 2-4 [2, 9]: 8% | Urate increased, Grade 3-4 [2, 9]: 7% | Urate increased, Grades 2-4 [2, 9]: 7% | patients with non-fasting glucose >160-250 mg/dL ([2]; EV-201, fasting glucose not measured, 23 patients): ^†CTCAE Grade 2 is defined as fasting glucose >160-250 mg/dL. Fasting glucose levels were not measured in EV-201. However, 23 (19%) patients had non-fasting glucose >160-250 mg/dL. | potential indicated by repeat-dose toxicity studies in rats [3]: impair male reproductive function and fertility | reversal of testes and epididymis findings by end of recovery period ([3]; up to 13 weeks): did not reverse | findings in testes and epididymis ([3]; up to 13 weeks, doses >=2 mg/kg, exposures similar to recommended human dose): decreases in testes and epididymis weights, seminiferous tubule degeneration, spermatid/spermatocyte depletion in the testes and cell debris, sperm granuloma and hypospermia/abnormal spermatids in the epididymis | comparability between enfortumab vedotin and AGS-22M6E [4]: confirmed | impact of ATA on efficacy, safety and pharmacokinetics [5]: No impact | patients persistently positive for ATA at any post-baseline time point ([5]; 1 patient): 0.3% | patients transiently positive for anti-therapeutic antibody (ATA) ([5]; 4 patients): 1% | association of higher exposure ([6]; e.g. Grade >=2 peripheral neuropathy, Grade >=3 hyperglycemia): higher incidence of some adverse reactions | association of lower exposure ([6]; exposure-response analysis): lower efficacy
